We go through 47 sequences from the NTF2 design screens of Basanta et al. (2020).

The data set can be described thus: protease stability score; higher = more stable; yeast display proteolysis, trypsin and chymotrypsin.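 Further: relative to predicted unfolded state with 0 unfolded-like and 1 meaning tenfold more protease.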
In turn, “SEDHEAAHDMLELLRHMELTGDENSLMDLLDPNAKNDVDGKVSVGREEWLRMVHFLLTRFDHIKSIEVEESRHIDGRLNYQTRLRGTVNGQDVELRTEWIVIKVNGKWFLHKVRFV” gave a protease stability score of 1.24.
“SEDHEAAHEVIREWEKVHKTGDEHIFTQLLDPHMRIEIGDKRFHGRDEAVTHFRENLTHWRIHRMEMEDVNSQGEYIIYHVQNFVRINGKVVILDLTIIILKVDGRWVIHSIHIK” registered a protease stability score of 1.24.
The sequence “SEDHEAFDSMIQSWLDVYLTGDEDIMLELFDPRMRVDINGKDIHGMHHYTDLLHKVRRERGFEEHLRIEDSKVINGKAEFHTHVHIRQGDKNMEFEVTIVVLKINGKWWIKHIEIT” had a protease stability score of 0.922.
In turn, “SEDHEALHKFLKELIESSRTGDWEDVTRLADPHTRQDFNGKILHGREELKETLKELGINHMEVILNRIDVQGDKAHVDGHLVIYYNGKEITREREIRMVKIDGVWLMHEVRIK” yielded a protease stability score of 1.15.
Take “SEDHEATHLIVELLERALKTGNERLWKDLFDPNVRIDINGKYFHGREEYVHFFKEWRFHDSRVHVHEVRVNEHELHIHGEVESHVTYNGQHRNLRLETTLFVIKVNGRWLFRHIEVR”: the protease stability score was 1.5.
“SEDHEDMDRMFDLLIKLLYTGDEESLEELFDPNTRIDVGDKVLHGRELAVKHVKDRLRRADHIEFHIKDRRAIDGRLEIDMELRIHVDGKDIIIRTKVHLEKVNGRWLIHHIKVH” came in with a protease stability score of 1.38.
Take “SEDHEEVRKVTKVYLELFETGDEEELMKLADPEVRLHINGRDLHGREWMERAIRELLEYYGVKHIESWTIHDITIQGDKAVMDTSVKIRVNGREHELKMHIYSRKFDGRWFLTSVRFH”: the protease stability score is 1.26.
For “SEDHEFSEHALREFIHVLMTGDERSLLKLMDPHTQLIFNGKEIHGMEEIIRIWSEHVKRFGFNHIDHVHIHHVEIQGDKIRIDGTTRGLVNGREHTHRTHLIAIKYNGKWIIHNIKID”, the protease stability score was determined as 1.9.
For “SEDHEFVRFIIEQLLHDLFTGDWRRLLKLFDPNAMIEVGDKTLHGMENIYRWHEEHYERLGLSNVEIHILIRKIHIQGDKVHIDGLLRLHFNGRDTEIHVRLHALKIDGKWQLTRVQHD”, the protease stability score turned out to be 1.89.
With “SEDHEIARLAVEIETHSQLTGDEESMNHLLDPTTRININGRELHGREEAIEWMKRFMEQFDHVKVEVEDISIQGEKLIIRGRFSVIYDGRKVQDHTEVIIVKFNGRWHVKSVHIR” the figure was 2.58; with “SEDHEIIRHYFELLVESFRTGDEETTRRLADPNTRLYFNGKTLHGMEAMLEVLLEIRIEEVELHHVEVINGRVEMDGTVRGIFNGRNQEVKVTFHARKINGVWILNWVEIH”, 2.12; with “SEDHEISRRMLEMVLDSFDTGDEHIYKDLADPHAKIEVNGKDIHGWDTWASEMVERTERVPGVRKEIHIRDIKSQGDKIEIRGEVIIDFNGKTIRYRVLFVIEKINGRWFIKSEHIK”, 1.04.
“SEDHELLKRELETFIKHLETGDEDILRRLADPHVRLEYNGKEFHGRDRIVEEWVRIAREIRIKVEIHHITYIGDKLEVDTILKIEQGDKRTEFRIEIFIQKVNGQWLLKEIKIK” gave a protease stability score of 1.44.
With “SEDHELRKHLADRTYKWLATGNFEELMKLMDPNTRFTIGEFNDHGRKAIEWLWRELGVDHFHFREIRVQGDKIHMDTEFEFNGVKVRTHFRVIVIDGRVTSVIILTE” the figure was 1.34; with “SEDHELVHRFTHFFLRMYFTGDEKEMEDLLDPNTRILWNGKEFHGREEVIEALRYIRSHARIRDFTIHSFEIFDGRAKMDTREHGEIDGRLRTFTLRLHILKVNGRWQFQEIQIE”, 2.12; with “SEDHEMAKRIVKQFMEEIFTGDWRDFEELLDPDVRIIIGDKELHGREQFELELRHMRRSIDEMHFTDAKVVGDKMIFDTRMKITIHVNGKELRFTTKSTFFILKVDGVWRIRQITVL”, 2.13.
Regarding “SEDHEMVKKLIHDLMRARSTGDEEEFYKLLDPHVRSDINGQETHGREEFVHWFIRHHHEFGFDHVERVHLHHIELIGDKIHVDLIVHITVGEYTIVTHEHLVIWKIDGRWVLRSMDLH”, the protease stability score worked out at 1.43.
As to “SEDHENIERFLTHFVTAIETGNFNELEKLLDPNAQIEINGQRIHGREWFVDHIRRIKNIRFEIHVEDSEFYNGKAHIRTRLILKYGDKEREHDVVLVIRKINGRWVIEWIIIE”, the protease stability score is 1.54.
With “SEDHENLRKSLEFFKHVVDTGDFRKLLQLADPNTRIIINGQTVHGMELTQKIWIHQFREAGHTRIHIRIEDIDVQGDKIQIDGKLDINGQERDTNLFIEKVNGRWIIRSIEFQ” the figure was 1.38; with “SEDHERERRVNEEFLTAMWTGDEKWIMNLADPNVRTEWNGVENIGRETISEHLDHQKKRLGVKHIEIKHVEIINGVLHMHGRLDVNGVETEVIIRSFIIDGRLTELIFEIR”, 0.819.
In turn, “SEDHERMKEMIELTLHAIFTGDEDLLKRLLDPHTRIVVNGQDRHGRHALEWFLSVLGIKHIHYEIVRTHLVNGVLHNHIHGHLNVNGKTYELEVEITIRKINGRWLMHVVQWDII” came in with a protease stability score of 1.99.
The sequence “SEDHERTEIAFKIMLHIFDTGDEHTMHRLVDPNARLRIGDKDWHGREFFFDVISRIKNLRIEELSIEDDDFVNGRIILHGRRNGSIGDKEIDTIVHLLIKKVDGRWRIEHVHNE” came in with a protease stability score of 1.36.
In the case of “SEDHEVARDIMEILLHLYLTGNEEDLKQFFDPHVRLVIGDKNIHGREEVVNHLKRILDRIPNVRVKHFTLHDIRIIGDKIYLNTEIHVKINGRDHRSETRWVILKVDGVWHLHSVEVG”, the protease stability score came out at 2.05.
The sequence “SEDHEVLRVALELMLHFLTTGDWHLLRKLMDPEVRIRVGEKHIHGMDLILSEWVRVIRELGVKHYHIEVKRDHHQGDKIHLDGTLHIDVNGRQIHIRTEIIAHKVDGKWIHESQVIN” yielded a protease stability score of 0.988.
Then “SEDHHETQRALELLVTFLRTGDEHTLERLMDPDTRSIIDGVELHGREDMKEVLEWLVKQADHLESVHVRYLNVQGDKAQIHVELRGRFNGKHSIHEVHITTVKINGKWLITEVEFR”, with 1.93.
The sequence “SEDHHLMEHAIEIMLEMIRTGDEQKYLNLVDPHARLEIDGREHHGWKRMREVFRWLGVDHSDVRHVNVQGEKVEVDTIIEVGDKRIEVIVIVRKINGRWVIEEVRVH” displayed a protease stability score of 0.549.
The sequence “SEDHHSLRNAWELLIKSIKTGDENLMERFADPSTKSRIDGVELVGREEVVHYFMQLRVKDVKLDEVDVVDGRVVIDGTLHGEYNGREETHKVRLFINKVDGQWILHSVEFH” came in with a protease stability score of 0.938.
With “SEDHKASHFNLILLLRAINTGDEDLEKELADPHVRYEFNGVDLVGMEDWVRFLEEIRVHPRDVKIQRHRVVNGRITFDVRLEGEFTYNGRTYRDTRETTAFVLKVNGRWIMHLHRID” the figure was 1.48.
On to “SEDHKETEEAMHKIRHDLETGDEKSWHEQADPNTRIDINGVDLHGREWASKFYSDVMQKVKGATVHLKHVHIFENRLIVDGIEIVNGRTHRVHLIADKINGRWVIREIRVE”, for which the protease stability score worked out at 1.06.
Take “SEDHKQAEEFMHRVAHNVLTGDEEKLDELIDPDARLEIGDKEHHGREIFIEFWRQLRVRDIKIRHWEIIGDKIFIRGEMNGIVDGRTRIFDIIVVMVKINGKWTLKRVEIK”: the protease stability score was 1.5.
In turn, “SEDHLEARETVTEELRARQTGDERRLDELIDPNTRLEINGKEVHGMEQIIEETRRLGVDVVEIRLERHDRFNGVIHVRGRLHYNWNGKSIDHETELIVYKVDGQWIVHSIHVL” had a protease stability score of 1.05.
Then “SEDHRDAEKFLRLFMELFKTGDFEELFRLVDPNVRLEINGREFHGRELVKKLLKEEHDRYKNATSEVEIDRIHIQGDWVHADIELRLDYNGKTLRWETHLVMLKVDGRWFVRSYSER”, with 2.6.
Take “SEDHREARHAVHVFLHLLETGDEDHLVKLLDPNVRYVIGDKTHHGWEELERIRNKFKNIRITLRDRDFHIFDGRLLVLIRGELEFDGRRVDFEVITYIEKINGRWIVSEFRIHLN”: the protease stability score came to 1.5.
The sequence “SEDHRHAMEFIHHMVRAIHTGDEQILTEYLDPHVRIENENETLHGWEHRTEWMKRFDHIDRHIIVRHVEIQGNKVKVDAELRFRLHQGDFVEENEIRLRIIILKVDGRWVLHKVRFI” had a protease stability score of 1.35.
With “SEDHRMMKEALDKLIDSIETGDPELYLRLFDPDTQTRIGDKHIHGWEEIEKIFRKILERFDHFEHMHLEHFDIQGNYIHLDIRLWGKVNGKRITLNIRVVVVKYNGRWTIREESLT” the figure was 1.72; with “SEDIDIAREMADIIIKYWETGDEDNVRQLMDPNVKFHIGDKVNIGREWMLEFVRHWKEHARMHLKVEDFRIVGDKIHVDTRIELNVNGREMHIDLHIHLRIVNGRLKSSHIEHR”, 1.19.
Regarding “SEDIEELRKVFEDWVRILRTGDEKSHKELMDPTYRNDQGEFHYHGMEDLEKFTRRYDHVNLIFRDMRLVNGVARVDGEIQLHQGDFKIDTHVIIYMLKIDGQWRIRSIEIR”, the protease stability score stood at 2.08.
Take “SEDIEHVEEALEMFRETLITGDEEIIRRLIDPHVRIIINGREYHGREAMDHFMKRFDVIHNLHITHWEDINGRMHVHGRIEGNIDGKTDVIETRILVVKVDGQWWFETIRIG”: the protease stability score was determined as 2.27.
In turn, “SEDIEIVKQVLEFHIRSEITGDEDTMTELLDPHTRITIGDKHIHGREEAVRILLEIANHMRIHRFHVHQVHIYDGRLEIDMRIDREYDGKRRHQEVWWIFIKVNGRWYIHSIEIR” returned a protease stability score of 1.67.
“SEDIELVHNIMEHMAKAFTTGDERHLLNLFDPNVRFMINGQNYVGWEHLINWIEHIRIKRVDLRINDVKLIGDKLHIHGRFIVRGQIDGREIDRVEDTRINFQKINGRWIIEELHFV” registered a protease stability score of 2.61.
The sequence “SEDIKEIKDILRTMYEAFITGDWRTVAKLFDPHVRIEYDGVRLHGREHVEHFLRHLRERVEWHHIEDTQEQGDYIELHGRTILNIEIGDKRDRRDSHFILMMVKVDGRWLIHRIIIR” had a protease stability score of 2.21.
Regarding “SEDKDNAQDLLHHVVKAWNTGDEDLTRKLFDPHVRLDINGVEIHGWRDLLRVLRELRLRVEMRVHDADFINGVIHLYTTVHSHIHFNGVDFHFHHETRMIILKINGRWLVHSITYL”, the protease stability score was 0.675.
As for “SEDKEADEIIIEKIMRALTTGDENLWKRLLDPNVRFEYDGVEMHGWEEIKKLLERIDHFHVDDHKIKDVRIIDGRIDNYGRLRGTIDINGREIHTILHVRILVLKIDGKWTVESEHSK”, the protease stability score was determined as 1.43.
Turning to “SEDKEAFHRVMKLLLHAWRTGDEDREKELFDPNVRFIIGDKIIIGREEWLKLLRRIDHLEVDLDIKRLEVIGDKIKAEFRLHEILKIDGVEIHQEHEVRLHLHKINGRWIIERVHVE”, the protease stability score is 0.845.
In turn, “SEDKEEAEEFVRIFNEALITGDFEFIEHLADPNVKYRQGEYHEHGRESLSHMFRFLGWSNVKIHLRHIKFYGDKIEVHGEVRIDGRTHWVNSYITKYDGRWYLTSLQIE” returned a protease stability score of 1.21.
In turn, “SEDKELADRFLNHITHLIRTGDENALSENLDPNTRLHIGDKHYIGWEEFLRIISERWKRADHQDVKLRDSRVQGDKVHLDGEIILIVDGKEIRHDFRIIVYKIDGRWHLESIRIG” returned a protease stability score of 2.09.
As to “SEDKELAERLYHLLLRTLITGDEKQLIDNMDPDARVHVGDKHRHGMEWMNRYLHELRIRDQDDKDIRLQGNKVHVDGHVRGNINGQEIDYRFHIELITINGVVHMINIQIR”, the protease stability score turned out to be 0.945.
